Measured values reported in patent publication US20080274100A1.

Experiments:
Assay in all cases: peptide ELISA, 0.5 µg/well scFv
[1] = biological target: GPIb (residues 268-285) derived peptide, sulfated at 3rd tyrosine position
[2] = biological target: GPIb (residues 268-285) derived peptide, sulfated at 1st tyrosine position
[3] = biological target: CCR5 (residues 1-18) derived peptide, sulfated at 3rd tyrosine position
[4] = biological target: CCR5 (residues 1-18) derived peptide, non-sulfated
[5] = biological target: PSGL-1 (residues 42-58) derived peptide, non-sulfated
[6] = biological target: PSGL-1 (residues 42-58) derived peptide, sulfated at 1st tyrosine position
[7] = biological target: CCR5 (residues 1-18) derived peptide, sulfated at 2nd tyrosine position
[8] = biological target: PSGL-1 (residues 42-58) derived peptide, sulfated at 2nd tyrosine position
[9] = biological target: GPIb (residues 268-285) derived peptide, non-sulfated
[10] = biological target: PSGL-1 (residues 42-58) derived peptide, sulfated at 3rd tyrosine position
[11] = biological target: CCR5 (residues 1-18) derived peptide, sulfated at 1st tyrosine position

ELISA read-out at 450 nm [1]: 0.07 OD 450 nm
ELISA read-out at 450 nm [2]: 0.07 OD 450 nm
ELISA read-out at 450 nm [3]: 0.06 OD 450 nm
ELISA read-out at 450 nm [4]: 0.06 OD 450 nm
ELISA read-out at 450 nm [5]: 0.06 OD 450 nm
ELISA read-out at 450 nm [6]: 0.06 OD 450 nm
ELISA read-out at 450 nm [7]: 0.06 OD 450 nm
ELISA read-out at 450 nm [8]: 0.06 OD 450 nm
ELISA read-out at 450 nm [9]: 0.07 OD 450 nm
ELISA read-out at 450 nm [10]: 0.06 OD 450 nm
ELISA read-out at 450 nm [11]: 0.06 OD 450 nm
Substance: N06 scFv (negative control)
